In patent US20120316071A1 (published 2012):
Changes are numbered by the printed parent chain. Numbers in names are those of the source.

T1: rHuman Erythropoietin R/Fc Chimera (human, UniProt P19235 25-250)
T1 construct: also called EPO R; EPO R/Fc
T1 sequence (looked up): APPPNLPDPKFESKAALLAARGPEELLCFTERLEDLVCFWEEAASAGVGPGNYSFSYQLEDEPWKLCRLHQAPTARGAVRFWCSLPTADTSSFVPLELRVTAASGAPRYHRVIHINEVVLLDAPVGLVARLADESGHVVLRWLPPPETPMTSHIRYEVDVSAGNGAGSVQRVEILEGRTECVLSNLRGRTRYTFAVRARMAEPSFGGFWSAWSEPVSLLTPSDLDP

B1: Fab VH5-51_IGHD5-18*01>3_IGHJ4*01 G100K/G104T (KT) & V3-4_IGLJ1*01 (Fab, V domains shown)
VH: EVQLVQSGAEVKKPGESLKISCKGSGYSFTSYWIGWVRQMPGKGLEWMGIIYPGDSDTRYSPSFQGQVTISADKSISTAYLQWSSLKASDTAMYYCARRKYSYTYDYFDYWGQGTLVTVSS
VL: QTVVTQEPSFSVSPGGTVTLTCGLSSGSVSTSYYPSWYQQTPGQAPRTLIYSTNTRSSGVPDRFSGSILGNKAALTITGAQADDESDYYCVLYMGSGISYVFGTGTKVTVL
notes: Tested as Fab; Fabs were expressed in E. coli from plasmid A (heavy chain CH1, His6 and Flag tags) and plasmid E (lambda CL); also called H:KT & L:wt
B2: Fab VH5-51_IGHD5-18*01>3_IGHJ4*01 G100K/G104T G24T/S28R/G35V (H:KT TRV) & V3-4_IGLJ1*01 V91L/S96P (L:LP) (Fab, V domains shown)
VH: B1 VH with G24T, S28R, G35V
VL: B1 VL with V91L, S96P
notes: Tested as a Fab made in E. coli; also called H:KT TRV & L:LP
B3: Fab VH5-51_IGHD5-18*01>3_IGHJ4*01 G100K/G104T G24T/S28R/G35V (H:KT TRV) & V3-4_IGLJ1*01 V91L/S96P S52G (Fab, V domains shown)
VH: B1 VH with G24T, S28R, G35V
VL: B1 VL with S52G, V91L, S96P
notes: Tested as a Fab made in E. coli; also called H:KT TRV & L:LP S52G
B4: Fab VH5-51_IGHD5-18*01>3_IGHJ4*01 G100K/G104T G24T/S28R/G35V (H:KT TRV) & V3-4_IGLJ1*01 (Fab, V domains shown)
VH: B1 VH with G24T, S28R, G35V
VL: B1 VL
notes: Tested as a Fab made in E. coli; also called H:KT TRV & L:wt; Wildtype (light chain)
B5: Fab VH5-51_IGHD5-18*01>3_IGHJ4*01 G100K/G104T G24T/S28R/G35V (H:KT TRV) & V3-4_IGLJ1*01 V91L/S96P S52M (Fab, V domains shown)
VH: B1 VH with G24T, S28R, G35V
VL: B1 VL with S52M, V91L, S96P
notes: Tested as a Fab made in E. coli; also called H:KT TRV & L:LP S52M
B6: Fab VH5-51_IGHD5-18*01>3_IGHJ4*01 G100K/G104T G54A & V3-4_IGLJ1*01 (Fab, V domains shown)
VH: B1 VH with G54A
VL: B1 VL
notes: Tested as Fab; CH1 with His6/Flag tags (plasmid A) and lambda CL (plasmid E) come from the expression vectors
B7: Fab VH5-51_IGHD5-18*01>3_IGHJ4*01 G100K/G104T T58A & V3-4_IGLJ1*01 (Fab, V domains shown)
VH: B1 VH with T58A
VL: B1 VL
notes: as for B6
B8: Fab VH5-51_IGHD5-18*01>3_IGHJ4*01 G100K/G104T S56A & V3-4_IGLJ1*01 (Fab, V domains shown)
VH: B1 VH with S56A
VL: B1 VL
notes: as for B6
B9: Fab VH1-46_IGHD6-6*01_IGHJ1*01 S102A/S103P/S104F/H111F (H:APFF) & L6_IGKJ1*01 S76E (Fab, V domains shown)
VH: QVQLVQSGAEVKKPGASVKVSCKASGYTFTSYYMHWVRQAPGQGLEWMGIINPSGGSTSYAQKFQGRVTMTRDTSTSTVYMELSSLRSEDTAVYYCAREEYAPFSAEYFQFWGQGTLVTVSS
VL: EIVLTQSPATLSLSPGERATLSCRASQSVSSYLAWYQQKPGQAPRLLIYDASNRATGIPARFSGSGSGTDFTLTIESLEPEDFAVYYCQQRSNWPPWTFGQGTKVEIKR
notes: Tested as Fab expressed in E. coli; VH was cloned into Plasmid A (CH1 constant region, His6 and Flag tags) and the kappa VL into Plasmid C (kappa CL)
B10: Fab VH1-46_IGHD6-6*01_IGHJ1*01 S102A/S103P/S104F/H111F (H:APFF) & L6_IGKJ1*01 S76P (Fab, V domains shown)
VH: B9 VH
VL: B9 VL with E76P
notes: as for B9
B11: Fab VH1-46_IGHD6-6*01_IGHJ1*01 S102A/S103P/S104F/H111F (H:APFF) & L6_IGKJ1*01 S76Q (Fab, V domains shown)
VH: B9 VH
VL: B9 VL with E76Q
notes: as for B9
B12: Fab VH1-46_IGHD6-6*01_IGHJ1*01 S102A/S103P/S104F/H111F (H:APFF) & L6_IGKJ1*01 S76N (Fab, V domains shown)
VH: B9 VH
VL: B9 VL with E76N
notes: as for B9
B13: Fab VH1-46_IGHD6-6*01_IGHJ1*01 S102A/S103P/S104F/H111F (APFF) & L6_IGKJ1*01 S92M (Fab, V domains shown)
VH: B9 VH
VL: B9 VL with E76S, S92M
notes: Tested as Fab (CH1 with His6/Flag tags from Plasmid A; kappa CL from Plasmid C); also called APFF / S92M
B14: Fab VH1-46_IGHD6-6*01_IGHJ1*01 S102A/S103P/S104F/H111F (APFF) & L6_IGKJ1*01 S92N (Fab, V domains shown)
VH: B9 VH
VL: B9 VL with E76S, S92N
notes: Tested as Fab (CH1 with His6/Flag tags from Plasmid A; kappa CL from Plasmid C); also called APFF / S92N
B15: Fab VH1-46_IGHD6-6*01_IGHJ1*01 S102A/S103P/S104F/H111F (APFF) & L6_IGKJ1*01 S92V (Fab, V domains shown)
VH: B9 VH
VL: B9 VL with E76S, S92V
notes: Tested as Fab (CH1 with His6/Flag tags from Plasmid A; kappa CL from Plasmid C); also called APFF / S92V
B16: Fab VH1-46_IGHD6-6*01_IGHJ1*01 S102A & L6_IGKJ1*01 (Fab, V domains shown)
VH: B9 VH with P103S, F104S, F111H
VL: not shown
notes: Fab

What follows are binders tested against T2, Recombinant Human DLL4 (R&D Systems Cat#1506-D4/CF) (human, UniProt Q9NR61 27-524) (assay: ECL (MSD) binding assay, Fab on immobilized recombinant human DLL4).
T2 construct: also called rHuman DLL4; delta-like protein 4

Binder	ECL signal
B1	588

These binders were tested against T3, Recombinant Human DLL4 (delta-like protein 4) (human, UniProt Q9NR61 27-524) (assay: ELISA, DLL4 coated on plate; Fab at 3.70 (head prints µM, text says nM)).
T3 construct: Bought recombinant protein (R&D Systems Cat#1506-D4/CF); also called rHuman DLL4; Delta-like 4

Binder	ELISA signal
B2	0.03
B3	0.06
B4	0.03
B5	0.03

The binders below were run against T3, Recombinant Human DLL4 (delta-like …) (assay: ELISA, DLL4 coated on plate; Fab at 100 (head prints µM, text says nM)).

Binder	ELISA signal
B2	0.34
B3	0.69
B4	0.16
B5	0.24

Each binder was assayed against T3, Recombinant Human DLL4 (delta-like …) (assay: ELISA, DLL4 coated on plate; Fab at 0.05 (head prints µM, text says nM)).

Binder	ELISA signal
B2	0.02
B3	0.02
B4	0.01
B5	0.02

The binders below were run against T3, Recombinant Human DLL4 (delta-like …) (assay: ELISA, DLL4 coated on plate; Fab at 0.41 (head prints µM, text says nM)).

Binder	ELISA signal
B2	0.02
B3	0.01
B4	0.01
B5	0.03

Each binder was assayed against T2, Recombinant Human DLL4 (R&D Systems …) (assay: ECL (MSD) multispot binding assay, Fab on immobilized recombinant human DLL4).

Binder	ECL Signal/Blank
B1	49.2
B6	4.1
B7	102
B8	55

These binders were tested against T4, Recombinant Human DLL4 (delta-like protein 4) (human, UniProt Q9NR61 27-524) (assay: ELISA, DLL4 coated on plate, Fab in solution, absorbance at 450 nm).
T4 construct: Bought recombinant protein (R&D Systems Cat#1506-D4/CF); also called rHuman DLL4; Delta-like 4

Binder	ELISA (Signal-Noise)
B9	0.36
B10	0.29
B11	0.32
B12	0.28

These binders were tested against T3, Recombinant Human DLL4 (delta-like …) (assay: ELISA, DLL4 coated on plate; Fab at 11.11 (head prints µM, text says nM)).

Binder	ELISA signal
B2	0.07
B3	0.17
B4	0.04
B5	0.06

These binders were tested against T5, rHuman P-Cadherin/Fc Chimera (human, UniProt P22223 108-654) (assay: ECL multispot (MSD) binding assay; antigen spotted on plate, Fab in solution;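 note: purified Fab bound for 1 h at 20 °C, detected with a TAG-labelled antibody, electrochemiluminescence compared with each well's blank, signal-to-blank ratio of at least 4 scored as hit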).
T5 construct: Bought from R&D Systems (Cat#861-PC)

Binder	ECL signal
B13	328
B14	271
B15	390

The binders below were run against rHuman EGF R/Fc Chimera (human, UniProt P00533 25-645) in the same assay as above.

Binder	ECL signal
B13	367
B14	293
B15	305

What follows are binders tested against rHuman ErbB2/Fc Chimera (human, UniProt P04626 23-652) in the same assay as above.

Binder	ECL signal
B13	301
B14	242
B15	246

These binders were tested against T1, rHuman Erythropoietin R/Fc Chimera in the same assay as above.

Binder	ECL signal
B13	340
B14	314
B15	368

The binders below were run against rHuman IGF-1 sR (insulin-like growth factor-1 soluble receptor) (human, UniProt P08069 31-932) in the same assay as above.

Binder	ECL signal
B13	271
B14	312
B15	237

These binders were tested against rHuman CD44/Fc Chimera (human, UniProt P16070 21-220) in the same assay as above.

Binder	ECL signal
B13	304
B14	336
B15	331

These binders were tested against T6, rHuman Notch-1/Fc Chimera (human, UniProt P46531 19-526) in the same assay as above.
T6 construct: Bought from R&D Systems (Cat#3647-TK)

Binder	ECL signal
B13	385
B14	407
B15	347

These binders were tested against T7, rHuman HGF R/c-MET/Fc Chimera (human, UniProt P08581 25-932) in the same assay as above.
T7 construct: also called HGF R/Fc
T7 sequence (P08581 25-932, change not shown): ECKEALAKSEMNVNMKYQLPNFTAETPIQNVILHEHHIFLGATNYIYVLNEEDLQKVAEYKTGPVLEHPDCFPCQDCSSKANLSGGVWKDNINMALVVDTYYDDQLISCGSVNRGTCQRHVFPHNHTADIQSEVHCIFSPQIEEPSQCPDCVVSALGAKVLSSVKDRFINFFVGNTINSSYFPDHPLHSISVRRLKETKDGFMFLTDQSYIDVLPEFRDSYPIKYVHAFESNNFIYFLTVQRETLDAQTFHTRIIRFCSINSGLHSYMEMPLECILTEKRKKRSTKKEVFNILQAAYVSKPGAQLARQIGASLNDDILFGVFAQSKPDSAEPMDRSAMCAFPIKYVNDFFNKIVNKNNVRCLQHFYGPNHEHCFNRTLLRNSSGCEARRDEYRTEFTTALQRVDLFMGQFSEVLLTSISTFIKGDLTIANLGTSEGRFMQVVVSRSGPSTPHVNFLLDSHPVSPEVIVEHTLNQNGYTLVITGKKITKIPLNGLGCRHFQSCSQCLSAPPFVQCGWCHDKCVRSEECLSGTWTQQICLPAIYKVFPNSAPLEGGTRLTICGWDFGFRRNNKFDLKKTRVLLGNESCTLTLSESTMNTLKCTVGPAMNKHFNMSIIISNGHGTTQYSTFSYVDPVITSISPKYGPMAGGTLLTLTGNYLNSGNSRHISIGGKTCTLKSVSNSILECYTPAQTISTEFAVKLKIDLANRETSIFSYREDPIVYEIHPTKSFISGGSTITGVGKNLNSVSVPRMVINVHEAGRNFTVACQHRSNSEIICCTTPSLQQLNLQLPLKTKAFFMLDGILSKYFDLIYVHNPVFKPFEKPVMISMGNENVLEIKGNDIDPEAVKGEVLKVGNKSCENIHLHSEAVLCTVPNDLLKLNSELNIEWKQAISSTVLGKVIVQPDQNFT

Binder	ECL signal
B13	346
B14	243
B15	288

The binders below were run against T8, Recombinant Human DLL4 (R&D Systems Cat#1506-D4/CF) (human, UniProt Q9NR61 27-524) (assay: 96-well plate ECL, DLL4 coated).
T8 construct: bought recombinant protein; also called rHuman DLL4; delta-like protein 4

Binder	fold signal/noise ratio against the parent Fab
B16	~3 fold

What follows are binders tested against T3, Recombinant Human DLL4 (delta-like …) (assay: ELISA, DLL4 coated on plate; Fab at 33.33 (head prints µM, text says nM)).

Binder	ELISA signal
B2	0.19
B3	0.35
B4	0.08
B5	0.12

These binders were tested against T4, Recombinant Human DLL4 (delta-like …) (assay: ECL (MSD) multispot binding assay, DLL4 immobilized, Fab in solution).

Binder	ECL Signal/Noise
B9	218
B10	100
B11	187
B12	118

What follows are binders tested against T3, Recombinant Human DLL4 (delta-like …) (assay: ELISA, DLL4 coated on plate; Fab at 0.14 (head prints µM, text says nM)).

Binder	ELISA signal
B2	0.03
B3	0.02
B4	0
B5	0.02

These binders were tested against T3, Recombinant Human DLL4 (delta-like …) (assay: ELISA, DLL4 coated on plate; Fab at 1.23 (head prints µM, text says nM)).

Binder	ELISA signal
B2	0.03
B3	0.03
B4	0.01
B5	0.03
